Earlier results, collected in patent publication US12478627B2, “Irsogladine for the treatment of eosinophilic gastrointestinal diseases” (EPITHELION SCIENCE BIOTECH, S.L., priority 2019, dated 2025).

B1: Resolizumab: mAb against IL-5 (antibody, chains of the INN, looked up, V domains shown)
VH: EVQLVESGGGLVQPGGSLRLSCAVSGLSLTSNSVNWIRQAPGKGLEWVGLIWSNGDTDYNSAIKSRFTISRDTSKSTVYLQMNSLRAEDTAVYYCAREYYGYFDYWGQGTLVTVSS
VL: DIQMTQSPSSLSASVGDRVTITCLASEGISSYLAWYQQKPGKAPKLLIYGANSLQTGVPSRFSGSGSATDYTLTISSLQPEDFATYYCQQSYKFPNTFGQGTKVEVK
B2: Mepolizumab: mAb against IL-5 (antibody, chains of the INN, looked up, V domains shown)
VH: QVTLRESGPALVKPTQTLTLTCTVSGFSLTSYSVHWVRQPPGKGLEWLGVIWASGGTDYNSALMSRLSISKDTSRNQVVLTMTNMDPVDTATYYCARDPPSSLLRLDYWGRGTPVTVSS
VL: DIVMTQSPDSLAVSLGERATINCKSSQSLLNSGNQKNYLAWYQQKPGQPPKLLIYGASTRESGVPDRFSGSGSGTDFTLTISSLQAEDVAVYYCQNVHSFPFTFGGGTKLEIK

Tested on: EoE and EoGIDs
Details: patients with EoE or EoGIDs, literature reports

| Molecule | clinical symptoms | tissue eosinophil infiltrate |
| --- | --- | --- |
| B1 | did not correspond with clinical improvement | significant reduction |
| B2 | did not correspond with clinical improvement | significant reduction |
